The values below come from patent US20200283847, “TEST KIT FOR DETECTING CONCENTRATION OF CARDIOVASCULAR DISEASE-RELATED BIOMARKER AND CONCENTRATION DETECTION METHOD FOR DETECTING CONCENTRATION OF CARDIOVASCULAR DISEASE-RELATED BIOMARKER” (National Tsing Hua University, published 2020).

Data set [1] has as its target T1, hcTnI (human cardiac troponin I) (Homo sapiens, UniProt P19429 P19429:2-210). The data set is described as follows: pulldown; protein-coated magnetic beads, qPCR. From the text: (§1) In the specificity test, the single-stranded DNA of the first aptamer, the second aptamer and the third aptamer are synthesized first. The magnetic beads coated with the target protein or the non-target protein are mixed with the first aptamer, the second aptamer or the third aptamer, and then the magnetic beads are captured by the magnet and the aptamers which are not bound to the magnetic beads are washed away. Then, the magnetic beads are heated to denature the proteins on the magnetic beads for releasing the bound aptamers into the supernatant. Quantitative PCR is performed using the supernatant to analyze the number of residual aptamers, and compared with each other to test the specificity of the first aptamer, the second aptamer, and the third aptamer. In theory, a specific aptamer should only bind to its corresponding target protein, but not to a non-corresponding protein. The aptamers tested in the example are the first aptamer N20a, the second aptamer Tn2, and the third aptamer F03s.
(§2) Please refer to FIGS. 5A, 5B, 5C and 5D, which show specificity analysis results of a test kit for detecting the concentration of the cardiovascular disease-related biomarker according to one embodiment of the present disclosure. […] TT represents the hcTnI with the second aptamer Tn2, NT represents the NT-proBNP protein with the second aptamer Tn2, FT represents the fibrinogen protein with the second aptamer Tn2, and BT represents the BSA protein with the second aptamer Tn2. FF represents the fibrinogen protein with the third aptamer F03s, NF represents the NT-proBNP with the third aptamer F03s, TF represents the hcTnI with the third aptamer F03s, and BF represents the BSA protein with the third aptamer F03s.
In general terms: Real-time PCR tracks product formation cycle by cycle.

Data set [2] deals with T2, fibrinogen (UniProt P02671-2;P02675;P02679 P02671-2:20-644,P02675:31-491,P02679:27-453). The data set can be described thus: pulldown; protein-coated magnetic beads, qPCR. The settings on record: chain copies: 2.
Text: as §1, §2

Data set [3] concerns the target T3, BSA (bovine serum albumin) (Bos taurus, UniProt P02769 P02769:25-607). The data set can be described thus: pulldown; protein-coated magnetic beads, qPCR.
Text: as §1, §2

Data set [4] addresses T4, NT-proBNP (N-terminal pro-brain natriuretic peptide) (UniProt P16860 P16860:27-102). The data set can be described thus: SPR. How it is done:
(§3) Firstly, the binding affinities of the first aptamer, the second aptamer, and the third aptamer contained in the test kit for detecting the concentration of the cardiovascular disease-related biomarker of the present disclosure are tested. The surface plasmon resonance (SPR) method is used in the binding affinity test to measure the signal changes and calculate the dissociation constant (Kd) of the first aptamer, the second aptamer and the third aptamer against their respective target proteins. Alternatively, a primary antibody against the target protein and secondary antibody conjugated with an enzyme is used in test. The binding affinities of the first aptamer, the second aptamer, and the third aptamer against their respective target proteins are measured by detecting the intensities of luminescence.
A general note: In SPR one partner is held on a chip, and binding of the other changes the refractive index at the surface.

The target of data set [5] is T1, hcTnI (human cardiac troponin I). The data set can be described thus: antibody luminescence assay. How it is done:
as §3
The curves of binding affinity curve are plotted with luminescence intensity of the first aptamer, the second aptamer or the third aptamer with its target protein. The first aptamer, the second aptamer or the third aptamer is bound to the target protein. And then the aptamer-protein complex is incubated with antibodies against target proteins and further with secondary antibodies conjugated with the enzyme, which could produce luminescence when providing substrates. The signal of luminescence of the first aptamer, the second aptamer or the third aptamer is detected. […]

Data set [6] addresses T4, NT-proBNP (N-terminal pro-brain …). The data set is described as follows: pulldown; protein-coated magnetic beads, qPCR.
Text: as §1, §2

Data set [7] deals with T2, fibrinogen. The data set is described as follows: SPR. The settings on record: chain copies: 2. How it is done: as §3
Data set [8] has as its target T4, NT-proBNP (N-terminal pro-brain …). The data set can be described thus: pulldown; protein-coated magnetic beads, qPCR; also no dose-dependent signal in FIG. 7B. How it is done:
as §1, with “The” for “In the specificity test, the single-stranded DNA of the first aptamer, the second aptamer and the third aptamer are synthesized first. The”
as §2

Data set [9] concerns the target T2, fibrinogen. The data set is described as above. The settings on record: chain copies: 2. How it is done:
as §1, with “The” for “In the specificity test, the single-stranded DNA of the first aptamer, the second aptamer and the third aptamer are synthesized first. The”
as §2

Data set [10] addresses T3, BSA (bovine serum albumin). The data set is described as above. How it is done: as §1, with “The” for “In the specificity test, the single-stranded DNA of the first aptamer, the second aptamer and the third aptamer are synthesized first. The”
as §2

For data set [11], the target named is T1, hcTnI (human cardiac troponin I). The data set is described as follows: SPR. How it is done: as §3

T3 sequence (P02769 25-607, one chain of several): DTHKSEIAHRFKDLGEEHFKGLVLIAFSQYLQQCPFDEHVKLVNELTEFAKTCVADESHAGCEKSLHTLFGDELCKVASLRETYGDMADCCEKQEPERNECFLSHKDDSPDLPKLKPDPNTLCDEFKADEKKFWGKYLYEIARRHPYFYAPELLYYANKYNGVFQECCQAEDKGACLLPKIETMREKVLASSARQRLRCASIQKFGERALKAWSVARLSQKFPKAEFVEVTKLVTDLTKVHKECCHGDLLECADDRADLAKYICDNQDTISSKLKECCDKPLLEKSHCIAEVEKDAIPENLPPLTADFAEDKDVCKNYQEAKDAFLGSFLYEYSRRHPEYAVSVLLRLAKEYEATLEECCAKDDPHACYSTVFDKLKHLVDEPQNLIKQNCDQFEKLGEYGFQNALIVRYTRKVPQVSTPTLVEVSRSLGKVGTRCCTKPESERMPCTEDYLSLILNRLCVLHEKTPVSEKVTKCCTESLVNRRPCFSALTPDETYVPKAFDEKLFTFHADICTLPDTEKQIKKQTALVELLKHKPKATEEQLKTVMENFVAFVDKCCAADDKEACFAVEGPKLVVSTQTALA
T2 sequence (P02671 other isoform, or with tags, fused parts or gaps, chain 1 of 3): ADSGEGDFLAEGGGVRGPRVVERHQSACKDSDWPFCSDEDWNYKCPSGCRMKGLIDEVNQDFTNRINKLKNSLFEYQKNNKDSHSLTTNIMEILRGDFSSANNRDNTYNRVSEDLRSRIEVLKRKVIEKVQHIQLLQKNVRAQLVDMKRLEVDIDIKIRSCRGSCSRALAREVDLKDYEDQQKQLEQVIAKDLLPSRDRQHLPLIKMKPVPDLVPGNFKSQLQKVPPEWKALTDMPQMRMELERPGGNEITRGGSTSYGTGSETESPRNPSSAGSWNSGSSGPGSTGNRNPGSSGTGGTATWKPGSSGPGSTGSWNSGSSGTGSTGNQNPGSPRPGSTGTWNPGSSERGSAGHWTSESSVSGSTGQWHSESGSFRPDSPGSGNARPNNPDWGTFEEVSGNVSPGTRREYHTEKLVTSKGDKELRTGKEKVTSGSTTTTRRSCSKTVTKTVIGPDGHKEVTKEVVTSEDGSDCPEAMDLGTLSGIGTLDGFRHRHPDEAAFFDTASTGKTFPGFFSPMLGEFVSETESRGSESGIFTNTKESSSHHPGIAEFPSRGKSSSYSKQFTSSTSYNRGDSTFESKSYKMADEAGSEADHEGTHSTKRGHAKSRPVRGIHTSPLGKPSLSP
T2 sequence (P02675 31-491, chain 2 of 3): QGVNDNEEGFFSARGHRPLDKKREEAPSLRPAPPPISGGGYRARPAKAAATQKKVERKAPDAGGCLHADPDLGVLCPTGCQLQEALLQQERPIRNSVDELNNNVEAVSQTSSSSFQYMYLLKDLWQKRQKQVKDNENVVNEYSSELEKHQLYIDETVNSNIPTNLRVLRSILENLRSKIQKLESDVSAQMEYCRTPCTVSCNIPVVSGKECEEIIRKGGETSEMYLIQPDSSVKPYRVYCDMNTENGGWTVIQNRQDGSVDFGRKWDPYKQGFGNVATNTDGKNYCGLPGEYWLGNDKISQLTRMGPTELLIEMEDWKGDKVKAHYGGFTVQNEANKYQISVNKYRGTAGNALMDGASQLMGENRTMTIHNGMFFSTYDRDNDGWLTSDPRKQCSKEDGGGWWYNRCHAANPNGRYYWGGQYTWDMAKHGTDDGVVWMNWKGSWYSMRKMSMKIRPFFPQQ
T2 sequence (P02679 27-453, chain 3 of 3): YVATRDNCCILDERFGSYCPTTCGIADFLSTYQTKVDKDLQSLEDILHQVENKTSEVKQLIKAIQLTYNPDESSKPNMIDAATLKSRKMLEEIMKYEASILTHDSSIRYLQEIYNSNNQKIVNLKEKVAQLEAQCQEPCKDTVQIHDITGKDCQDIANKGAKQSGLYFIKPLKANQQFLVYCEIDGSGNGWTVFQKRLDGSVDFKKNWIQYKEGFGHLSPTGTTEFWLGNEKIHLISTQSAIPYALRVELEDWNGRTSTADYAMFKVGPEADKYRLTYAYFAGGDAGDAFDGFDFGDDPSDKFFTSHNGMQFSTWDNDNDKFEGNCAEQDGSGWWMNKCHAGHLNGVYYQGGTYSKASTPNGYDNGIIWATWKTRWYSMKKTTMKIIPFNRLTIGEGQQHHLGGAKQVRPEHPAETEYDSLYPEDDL
T1 sequence (P19429 2-210, one chain of several): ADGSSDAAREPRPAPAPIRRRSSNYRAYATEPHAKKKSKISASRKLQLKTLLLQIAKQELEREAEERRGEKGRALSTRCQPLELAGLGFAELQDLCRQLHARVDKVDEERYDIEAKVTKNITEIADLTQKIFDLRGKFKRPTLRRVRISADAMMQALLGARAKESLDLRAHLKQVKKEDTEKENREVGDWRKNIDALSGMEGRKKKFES
T4 sequence (P16860 27-102, one chain of several): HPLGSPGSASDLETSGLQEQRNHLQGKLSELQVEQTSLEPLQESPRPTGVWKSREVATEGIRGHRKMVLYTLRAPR

B1: N20a (ssDNA)
DNA: GGCAGGAAGACAAACAGGTCGTAGTGGAAACTGTCCACCGTAGACCGGTTATCTAGTGGTCTGTGGTGCTGT
By Kd is commonly meant a measure of binding affinity in units of concentration. A higher Kd goes with a looser complex. As for B1, the binding result in data set [1], in data set [2] and in data set [3] was “no binding” each time. The molecule also showed a Kd in [4] of 2.89 nM.

B2: cTni3 (ssDNA)
DNA: GGCAGGAAGACAAACAGGGGTACTTAGCATAGGAGTTTTGTTCTGTCGCACCTCGTTGGTCTGTGGTGCTGT
The molecule B2 returned a Kd in [5] of 2.3 nM.

B3: F03s (ssDNA)
DNA: GGCAGGAAGACAAACAGCACCGGGTCCGAAACAGGCTTAGGTATGATCACAGCTCATGGTCTGTGGTGCTGT
Take B3: the binding result in data set [1], in data set [6] and in data set [3] was “no binding” each time. Besides, the Kd in data set [7] was found to be 4.4 nM.

B4: Tn2 (ssDNA)
DNA: GGCAGGAAGACAAACACCCAACCGAGGATGCAACGCTTGTTGTCATACTGTGATGTTGGTCTGTGGTGCTGT
With B4, the binding result in data set [8], in [9] and in data set [10] was “no binding” throughout. This molecule had a Kd in data set [11] of 19.8 nM.

B5: cTni6 (ssDNA)
DNA: GGCAGGAAGACAAACACGGGGCGGCCGAAACAATGCGTTTCGGACCCAGCAACTCGTGGTCTGTGGTGCTGT
The molecule B5 registered a Kd in data set [5] of 49.4 nM. In other words, the double-digit nanomolar range.
